Assay results as given in publication PMC6381605, “NR4A Nuclear Receptors Target Poly-ADP-Ribosylated DNA-PKcs Protein to Promote DNA Repair”.

Target: NR4A2 R319A (UniProt Q06219 1-598, R319A)
Test: EMSA; EMSA: 1 ug protein, 10 mM Tris pH 8, 50 mM NaCl, 1 mM EDTA, 5% glycerol, 5 mM DTT, 20 ng/ul dIdC, 1.25 mg/ml BSA, 20 min room temperature; 5% PAGE 0.25x TBE. PAR dot blots left out (PAR is not a defined nucleic acid).
Details: protein: recombinant; tags: GST tag cleaved (PreScission); label: 32P (alpha-32P-dCTP Klenow fill-in); 5' overhang 4 nt (GATC) on both ends before Klenow fill-in

NR4A2 R319A, sequence (Q06219 whole entry R319A): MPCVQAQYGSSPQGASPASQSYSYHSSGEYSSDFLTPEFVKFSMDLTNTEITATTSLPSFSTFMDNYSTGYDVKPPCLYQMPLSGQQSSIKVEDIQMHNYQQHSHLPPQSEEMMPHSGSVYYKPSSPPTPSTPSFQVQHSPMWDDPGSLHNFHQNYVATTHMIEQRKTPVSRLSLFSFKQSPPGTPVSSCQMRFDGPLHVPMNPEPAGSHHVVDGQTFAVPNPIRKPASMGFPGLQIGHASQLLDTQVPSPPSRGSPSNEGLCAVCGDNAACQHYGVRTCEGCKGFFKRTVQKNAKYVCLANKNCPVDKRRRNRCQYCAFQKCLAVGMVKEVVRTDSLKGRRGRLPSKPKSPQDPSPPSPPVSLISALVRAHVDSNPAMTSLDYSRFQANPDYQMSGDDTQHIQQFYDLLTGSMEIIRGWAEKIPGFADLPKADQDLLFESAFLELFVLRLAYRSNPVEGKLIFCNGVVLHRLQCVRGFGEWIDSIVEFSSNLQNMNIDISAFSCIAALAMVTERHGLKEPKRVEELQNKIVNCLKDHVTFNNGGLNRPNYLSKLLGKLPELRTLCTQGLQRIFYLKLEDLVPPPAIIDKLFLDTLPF

B1: NBRE (dsDNA)
DNA 1: GATCCTCGTGCGAAAAGGTCAAGCGCTA
DNA 2: GATCTAGCGCTTGACCTTTTCGCACGAG
B1: no binding.
